The results in this text go back to IntAct's records for PubMed 29039417.

The labels stand for the following.
B1: BBSome complex member BBS2 (Homo sapiens), Q9BXC9 (parent)
chain: MLLPVFTLKLRHKISPRMVAIGRYDGTHPCLAAATQTGKVFIHNPHTRNQHVSASRVFQSPLESDVSLLSINQAVSCLTAGVLNPELGYDALLVGTQTNLLAYDVYNNSDLFYREVADGANAIVLGTLGDISSPLAIIGGNCALQGFNHEGSDLFWTVTGDNVNSLALCDFDGDGKKELLVGSEDFDIRVFKEDEIVAEMTETEIVTSLCPMYGSRFGYALSNGTVGVYDKTSRYWRIKSKNHAMSIHAFDLNSDGVNELITGWSNGKVDARSDRTGEVIFKDNFSSAIAGVVEGDYRMDGHIQLICCSVDGEIRGYLPGTAEMRGNLMDTSAEQDLIRELSQKKQNLLLELRNYEENAKAELASPLNEADGHRGIIPANTRLHTTLSVSLGNETQTAHTELRISTSNDTIIRAVLIFAEGIFTGESHVVHPSIHNLSSSICIPIVPPKDVPVDLHLKAFVGYRSSTQFHVFESTRQLPRFSMYALTSLDPASEPISYVNFTIAERAQRVVVWLGQNFLLPEDTHIQNAPFQVCFTSLRNGGHLHIKIKLSGEITINTDDIDLAGDIIQSMASFFAIEDLQVEADFPVYFEELRKVLVKVDEYHSVHQKLSADMADHSNLIRSLLVGAEDARLMRDMKTMKSRYMELYDLNRDLLNGYKIRCNNHTELLGNLKAVNQAIQRAGRLRVGKPKNQVITACRDAIRSNNINTLFKIMRVGTASS
partner: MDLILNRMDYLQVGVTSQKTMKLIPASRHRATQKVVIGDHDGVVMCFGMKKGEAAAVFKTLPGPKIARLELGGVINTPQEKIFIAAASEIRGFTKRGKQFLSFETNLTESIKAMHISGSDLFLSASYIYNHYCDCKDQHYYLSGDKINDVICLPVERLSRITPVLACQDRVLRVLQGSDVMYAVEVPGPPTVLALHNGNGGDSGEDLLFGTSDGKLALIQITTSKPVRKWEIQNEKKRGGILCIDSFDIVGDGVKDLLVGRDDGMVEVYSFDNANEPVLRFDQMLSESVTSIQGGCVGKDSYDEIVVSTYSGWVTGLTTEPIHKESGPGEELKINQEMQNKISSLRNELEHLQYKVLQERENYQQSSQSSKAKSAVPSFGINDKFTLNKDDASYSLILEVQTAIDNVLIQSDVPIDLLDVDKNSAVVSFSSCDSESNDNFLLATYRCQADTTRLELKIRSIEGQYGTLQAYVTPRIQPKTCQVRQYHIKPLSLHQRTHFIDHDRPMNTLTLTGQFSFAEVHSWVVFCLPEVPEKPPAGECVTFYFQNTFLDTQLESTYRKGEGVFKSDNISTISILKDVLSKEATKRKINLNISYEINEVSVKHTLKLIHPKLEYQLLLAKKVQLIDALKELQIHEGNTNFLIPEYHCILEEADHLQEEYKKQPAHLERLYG

This assay covers variants of B1. The settings on record: with BBS7, Q8IWZ6-2.
E340A: the “effect of a mutation on the interaction” value is given as “with no effect”.

Regarding E505K, the “effect of a mutation on the interaction” value is recorded as “with no effect”.

In the case of M571A, the “effect of a mutation on the interaction” value is reported as “with no effect”.

With D559K, the “effect of a mutation on the interaction” value is listed as “with no effect”.

With D559E, the “effect of a mutation on the interaction” value is “with no effect”.

With D560E, the “effect of a mutation on the interaction” value is “with no effect”.

Turning to N436E, the “effect of a mutation on the interaction” value is “with no effect”.

Take G657E: the “effect of a mutation on the interaction” value was “with no effect”.

Turning to F535K, the “effect of a mutation on the interaction” value was “disrupting interaction strength”.

In the case of I434A, the “effect of a mutation on the interaction” value was “with no effect”.

For the variant I434E, the “effect of a mutation on the interaction” value was “with no effect”.

With C534E, the “effect of a mutation on the interaction” value is given as “with no effect”.

S721K: the “effect of a mutation on the interaction” value was “with no effect”.

In the case of S721E, the “effect of a mutation on the interaction” value was “with no effect”.

Turning to S721A, the “effect of a mutation on the interaction” value is “with no effect”.

Regarding G717E, the “effect of a mutation on the interaction” value is reported as “with no effect”.

For S482A, the “effect of a mutation on the interaction” value is given as “with no effect”.

With S482E, the “effect of a mutation on the interaction” value is “disrupting interaction strength”.

As to R539A, the “effect of a mutation on the interaction” value was “with no effect”.

N663E: the “effect of a mutation on the interaction” value is “with no effect”.

Consider A584E, for which the “effect of a mutation on the interaction” value is listed as “with no effect”.

For S465A, the “effect of a mutation on the interaction” value is “with no effect”.

On to S365A, for which the “effect of a mutation on the interaction” value is given as “with no effect”.

Regarding M483E, the “effect of a mutation on the interaction” value is “with no effect”.

Consider H470K, for which the “effect of a mutation on the interaction” value is “with no effect”.

On to A615K, for which the “effect of a mutation on the interaction” value is on record as “with no effect”.

With D566E, the “effect of a mutation on the interaction” value is recorded as “with no effect”.

Turning to D566A, the “effect of a mutation on the interaction” value is on record as “with no effect”.

With Q680K, the “effect of a mutation on the interaction” value is “with no effect”.

Regarding P452K, the “effect of a mutation on the interaction” value is “with no effect”.

On to A576K, for which the “effect of a mutation on the interaction” value was “with no effect”.

As for H373A, the “effect of a mutation on the interaction” value is “with no effect”.

For the variant I503K, the “effect of a mutation on the interaction” value was “disrupting interaction strength”.

As for H428K, the “effect of a mutation on the interaction” value is “with no effect”.

Turning to M637A, the “effect of a mutation on the interaction” value is recorded as “with no effect”.

N692A: the “effect of a mutation on the interaction” value is recorded as “with no effect”.

For G552A, the “effect of a mutation on the interaction” value is listed as “with no effect”.

On to T555H, for which the “effect of a mutation on the interaction” value is “disrupting interaction strength”.

As to N557K, the “effect of a mutation on the interaction” value is “with no effect”.

In the case of L620K, the “effect of a mutation on the interaction” value is “with no effect”.

For the variant H431K, the “effect of a mutation on the interaction” value is reported as “with no effect”.

Consider Q569K, for which the “effect of a mutation on the interaction” value is reported as “with no effect”.

Regarding N705A, the “effect of a mutation on the interaction” value is recorded as “with no effect”.

A719K: the “effect of a mutation on the interaction” value is listed as “with no effect”.

On to A682E, for which the “effect of a mutation on the interaction” value is on record as “with no effect”.

In the case of T400A, the “effect of a mutation on the interaction” value is reported as “with no effect”.

With N327A, the “effect of a mutation on the interaction” value is given as “with no effect”.

On to I702K, for which the “effect of a mutation on the interaction” value is “with no effect”.

As to L625E, the “effect of a mutation on the interaction” value was “with no effect”.

In the case of L625A, the “effect of a mutation on the interaction” value is “with no effect”.

On to M329E, for which the “effect of a mutation on the interaction” value is “with no effect”.

For the variant L633K, the “effect of a mutation on the interaction” value is reported as “with no effect”.

Regarding L633A, the “effect of a mutation on the interaction” value is on record as “with no effect”.

In the case of F418A, the “effect of a mutation on the interaction” value is “with no effect”.

F418E: the “effect of a mutation on the interaction” value was “with no effect”.

In the case of I707E, the “effect of a mutation on the interaction” value is recorded as “with no effect”.

With M634E, the “effect of a mutation on the interaction” value was “with no effect”.

Take N354A: the “effect of a mutation on the interaction” value is listed as “with no effect”.

With I621A, the “effect of a mutation on the interaction” value is reported as “with no effect”.

Regarding A564H, the “effect of a mutation on the interaction” value was “disrupting interaction strength”.

Turning to T666A, the “effect of a mutation on the interaction” value is on record as “with no effect”.

Turning to T666K, the “effect of a mutation on the interaction” value is given as “with no effect”.

I441R: the “effect of a mutation on the interaction” value is “disrupting interaction strength”.

With R374A, the “effect of a mutation on the interaction” value is listed as “with no effect”.

For the variant D330E, the “effect of a mutation on the interaction” value is on record as “with no effect”.

With S390K, the “effect of a mutation on the interaction” value is given as “with no effect”.

For V675K, the “effect of a mutation on the interaction” value is listed as “with no effect”.

For the variant V675A, the “effect of a mutation on the interaction” value was “with no effect”.

Take F518L: the “effect of a mutation on the interaction” value is recorded as “disrupting interaction strength”.

For the variant G688A, the “effect of a mutation on the interaction” value is listed as “disrupting interaction strength”.

Regarding G688K, the “effect of a mutation on the interaction” value is reported as “disrupting interaction strength”.

As to I411A, the “effect of a mutation on the interaction” value is reported as “with no effect”.

Consider Q346A, for which the “effect of a mutation on the interaction” value is “with no effect”.

In the case of A414E, the “effect of a mutation on the interaction” value is on record as “with no effect”.

For I496A, the “effect of a mutation on the interaction” value is given as “with no effect”.

Regarding L668K, the “effect of a mutation on the interaction” value was “with no effect”.

For the variant N671K, the “effect of a mutation on the interaction” value is recorded as “with no effect”.

For the variant N664K, the “effect of a mutation on the interaction” value is reported as “with no effect”.

As to N664E, the “effect of a mutation on the interaction” value is recorded as “with no effect”.

In the case of K458A, the “effect of a mutation on the interaction” value is on record as “with no effect”.

Turning to N676E, the “effect of a mutation on the interaction” value is listed as “with no effect”.

Regarding D336E, the “effect of a mutation on the interaction” value was “with no effect”.

As to R699K, the “effect of a mutation on the interaction” value is listed as “with no effect”.

Turning to R699A, the “effect of a mutation on the interaction” value is listed as “with no effect”.

With W513E, the “effect of a mutation on the interaction” value is given as “disrupting interaction strength”.

For W513K, the “effect of a mutation on the interaction” value is “disrupting interaction strength”.

With H456E, the “effect of a mutation on the interaction” value was “with no effect”.

In the case of L514E, the “effect of a mutation on the interaction” value is reported as “with no effect”.
